# In patent US20200199241A1 (Chugai, published 2020):
# Residue numbers refer to the chain shown, from its start.
# B1: IgG1-F1061 (antibody)
# heavy: QVQLQESGPGLVKPSETLSLTCAVSGHSISHDHAWSWVRQPPGEGLEWIGFISYSGITNYNPSLQGRVTISRDNSKNTLYLQMNSLRAEDTAVYYCARSLARTTAMDYWGEGTLVTVSSASTKGPSVFPLAPSSKSTSGGTAALGCLVKDYFPEPVTVSWNSGALTSGVHTFPAVLQSSGLYSLSSVVTVPSSSLGTQTYICNVNHKPSNTKVDKKVEPKSCDKTHTCPPCPAPELLGGPSVFLFPPKPKDTLYISRTPEVTCVVVDVSHEDPEVKFNWYVDGVEVHNAKTKPREEQYNSTYRVVSVLTVLHQDWLNGKEYKCKVSNKALPAPIEKTISKAKGQPREPQVYTLPPSRDELTKNQVSLTCLVKGFYPSDIAVEWESNGQEENNYKTTPPVLDSDGSFFLYSKLTVDKSRWQQGNVFSCSVMHEALHYHVTQKSLSLSP
# light: not shown
# notes: EU numbering; copies: 2 + 2
# B2: IgG1-F1062 (antibody)
# heavy: B1 heavy with E389R
# light: not shown
# notes: EU numbering; copies: 2 + 2
# B3: IgG1-F1063 (antibody)
# heavy: B1 heavy with E389S
# light: not shown
# notes: EU numbering; copies: 2 + 2
# B4: IgG1-F1064 (antibody)
# heavy: B1 heavy with E389P, V424E
# light: not shown
# notes: EU numbering; copies: 2 + 2
# B5: IgG1-F1065 (antibody)
# heavy: B1 heavy with E389P, V424R
# light: not shown
# notes: EU numbering; copies: 2 + 2
# B6: IgG1-F1066 (antibody)
# heavy: B1 heavy with E389P, V424S
# light: not shown
# notes: EU numbering; copies: 2 + 2
# B7: IgG1-F1067 (antibody)
# heavy: B1 heavy with E389P, S426E
# light: not shown
# notes: EU numbering; copies: 2 + 2
# B8: IgG1-F1068 (antibody)
# heavy: B1 heavy with E389P, S426R
# light: not shown
# notes: EU numbering; copies: 2 + 2
# B9: IgG1-F1069 (antibody)
# heavy: B1 heavy with E389P, Q440E
# light: not shown
# notes: EU numbering; copies: 2 + 2
# B10: IgG1-F1070 (antibody)
# heavy: B1 heavy with E389P, Q440R
# light: not shown
# notes: EU numbering; copies: 2 + 2
# B11: IgG1-F1073 (antibody)
# heavy: B1 heavy with E389P, S442R
# light: not shown
# notes: EU numbering; copies: 2 + 2
# B12: IgG1-F1074 (antibody)
# heavy: B1 heavy with S241D, E389P
# light: not shown
# notes: EU numbering; copies: 2 + 2
# B13: IgG1-F1075 (antibody)
# heavy: B1 heavy with K328D, L330Y, E389P
# light: not shown
# notes: EU numbering; copies: 2 + 2
# B14: IgG1-F1077 (antibody)
# heavy: B1 heavy with K250N, E389P, V438Y
# light: not shown
# notes: EU numbering; copies: 2 + 2
# B15: IgG1-F1080 (antibody)
# heavy: B1 heavy with E389P, S426N, V438Y
# light: not shown
# notes: EU numbering; copies: 2 + 2
# B16: IgG1-F1081 (antibody)
# heavy: B1 heavy with E389P, V438N, Q440T
# light: not shown
# notes: EU numbering; copies: 2 + 2
# B17: IgG1-F1082 (antibody)
# heavy: B1 heavy with E389P, V438Y, Q440N
# light: not shown
# notes: EU numbering; copies: 2 + 2
# B18: IgG1-F1083 (antibody)
# heavy: B1 heavy with E389P, V438Y, S442N
# light: not shown
# notes: EU numbering; copies: 2 + 2
# B19: IgG1-F1094 (antibody)
# heavy: B1 heavy with E389P, V438Y, S444N
# light: not shown
# notes: EU numbering; copies: 2 + 2
# B20: IgG1-F1095 (antibody)
# heavy: B1 heavy with S385N, G387S, E389P, V438Y
# light: not shown
# notes: EU numbering; copies: 2 + 2
# B21: IgG1-F1096 (antibody)
# heavy: B1 heavy with Q388T, E389P, V438Y
# light: not shown
# notes: EU numbering; copies: 2 + 2
# B22: IgG1-F1097 (antibody)
# heavy: B1 heavy with G387N, E389S, V438Y
# light: not shown
# notes: EU numbering; copies: 2 + 2
# B23: IgG1-F1098 (antibody)
# heavy: B1 heavy with S241D, E389P, V438Y
# light: not shown
# notes: EU numbering; copies: 2 + 2
# B24: IgG1-F1100 (antibody)
# heavy: B1 heavy with S241D, K328D, L330Y, E389P, V438Y
# light: not shown
# notes: EU numbering; copies: 2 + 2
# B25: IgG1-F1101 (antibody)
# heavy: B1 heavy with S241D, T309Q, Q313A, E389P, V438Y
# light: not shown
# notes: EU numbering; copies: 2 + 2
# B26: IgG1-F1102 (antibody)
# heavy: B1 heavy with T309Q, Q313A, K328D, L330Y, E389P, V438Y
# light: not shown
# notes: EU numbering; copies: 2 + 2
# B27: IgG1-F1103 (antibody)
# heavy: B1 heavy with S241D, T309Q, Q313A, K328D, L330Y, E389P, V438Y
# light: not shown
# notes: EU numbering; copies: 2 + 2
# B28: IgG1-F1104 (antibody)
# heavy: B1 heavy with E389P, V424E, S426R
# light: not shown
# notes: EU numbering; copies: 2 + 2
# B29: IgG1-F1105 (antibody)
# heavy: B1 heavy with E389P, V424S, S426R
# light: not shown
# notes: EU numbering; copies: 2 + 2
# B30: IgG1-F1106 (antibody)
# heavy: B1 heavy with E389P, Q440R, S442E
# light: not shown
# notes: EU numbering; copies: 2 + 2
# B31: IgG1-F1107 (antibody)
# heavy: B1 heavy with E389P, V424D
# light: not shown
# notes: EU numbering; copies: 2 + 2
# B32: IgG1-F1108 (antibody)
# heavy: B1 heavy with E389P, V424K
# light: not shown
# notes: EU numbering; copies: 2 + 2
# B33: IgG1-F1109 (antibody)
# heavy: B1 heavy with E389P, V424T
# light: not shown
# notes: EU numbering; copies: 2 + 2
# B34: IgG1-F1110 (antibody)
# heavy: B1 heavy with E389P, V424Q
# light: not shown
# notes: EU numbering; copies: 2 + 2
# B35: IgG1-F1111 (antibody)
# heavy: B1 heavy with E389P, S426K
# light: not shown
# notes: EU numbering; copies: 2 + 2
# B36: IgG1-F1112 (antibody)
# heavy: B1 heavy with E389P, Q440K
# light: not shown
# notes: EU numbering; copies: 2 + 2
# B37: IgG1-F1114 (antibody)
# heavy: B1 heavy with E389P, S442Q
# light: not shown
# notes: EU numbering; copies: 2 + 2
# B38: IgG1-F1115 (antibody)
# heavy: B1 heavy with E389P, S426N
# light: not shown
# notes: EU numbering; copies: 2 + 2
# B39: IgG1-F1116 (antibody)
# heavy: B1 heavy with T309Q, Q313A, E389P, S426N, V438Y
# light: not shown
# notes: EU numbering; copies: 2 + 2
# B40: IgG1-F1117 (antibody)
# heavy: B1 heavy with T252V, T309Q, Q313A, E389P, S426N
# light: not shown
# notes: EU numbering; copies: 2 + 2
# B41: IgG1-F1118 (antibody)
# heavy: B1 heavy with T252V, T309Q, V310P, Q313A, E389P, S426N
# light: not shown
# notes: EU numbering; copies: 2 + 2
# B42: IgG1-F1119 (antibody)
# heavy: B1 heavy with T252V, T309Q, V310P, Q313A, E389P, V424E
# light: not shown
# notes: EU numbering; copies: 2 + 2
# B43: IgG1-F1120 (antibody)
# heavy: B1 heavy with T252V, T309Q, V310P, Q313A, E389P, S426R
# light: not shown
# notes: EU numbering; copies: 2 + 2
# B44: IgG1-F1121 (antibody)
# heavy: B1 heavy with T252V, T309Q, V310P, Q313A, E389P, V424E, S426R
# light: not shown
# notes: EU numbering; copies: 2 + 2
# B45: IgG1-F1122 (antibody)
# heavy: B1 heavy with T252V, T309Q, V310P, Q313A, E389P, Q440R
# light: not shown
# notes: EU numbering; copies: 2 + 2
# B46: IgG1-F1123 (antibody)
# heavy: B1 heavy with T252V, T309Q, V310P, Q313A, E389P, S442E
# light: not shown
# notes: EU numbering; copies: 2 + 2
# B47: IgG1-F1124 (antibody)
# heavy: B1 heavy with T252V, T309Q, V310P, Q313A, E389P, Q440R, S442E
# light: not shown
# notes: EU numbering; copies: 2 + 2
# B48: IgG1-F1125 (antibody)
# heavy: B1 heavy with T309Q, E389P
# light: not shown
# notes: EU numbering; copies: 2 + 2
# B49: IgG1-F1126 (antibody)
# heavy: B1 heavy with T309A, E389P
# light: not shown
# notes: EU numbering; copies: 2 + 2
# B50: IgG1-F1127 (antibody)
# heavy: B1 heavy with Q313A, E389P
# light: not shown
# notes: EU numbering; copies: 2 + 2
# B51: IgG1-F1128 (antibody)
# heavy: B1 heavy with Q313H, E389P
# light: not shown
# notes: EU numbering; copies: 2 + 2
# B52: IgG1-F1129 (antibody)
# heavy: B1 heavy with T309Q, Q313H, E389P
# light: not shown
# notes: EU numbering; copies: 2 + 2
# B53: IgG1-F1130 (antibody)
# heavy: B1 heavy with T309A, Q313A, E389P
# light: not shown
# notes: EU numbering; copies: 2 + 2
# B54: IgG1-F1131 (antibody)
# heavy: B1 heavy with L237R, S241K, E389P, V424E
# light: not shown
# notes: EU numbering; copies: 2 + 2
# B55: IgG1-F1132 (antibody)
# heavy: B1 heavy with L237R, S241K, E389P, V424S
# light: not shown
# notes: EU numbering; copies: 2 + 2
# B56: IgG1-F1133 (antibody)
# heavy: B1 heavy with L237R, S241K, E389P, S426R
# light: not shown
# notes: EU numbering; copies: 2 + 2
# B57: IgG1-F1134 (antibody)
# heavy: B1 heavy with L237R, S241K, E389P, Q440R
# light: not shown
# notes: EU numbering; copies: 2 + 2
# B58: IgG1-F1135 (antibody)
# heavy: B1 heavy with L237R, S241K, E389P, S442E
# light: not shown
# notes: EU numbering; copies: 2 + 2
# B59: IgG1-F1136 (antibody)
# heavy: B1 heavy with L237R, S241K, E389P, V424E, S426R
# light: not shown
# notes: EU numbering; copies: 2 + 2
# B60: IgG1-F1137 (antibody)
# heavy: B1 heavy with L237R, S241K, E389P, V424S, S426R
# light: not shown
# notes: EU numbering; copies: 2 + 2
# Biological target: T1, soluble human FcRn complexed with β2-microglobulin (human, UniProt P61769 21-119, limits assumed)
# T1 construct: also called hFcRn
# Assay: Biacore SPR, pH 7.0;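 note: test antibodies captured on a Protein L chip with human FcRn flowed over as analyte, KD obtained as the ratio of dissociation to association rate constants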
row,Kd [nM],Binder
1,119,B1
2,120,B2
3,143,B3
4,132,B4
5,138,B5
6,145,B6
7,126,B7
8,169,B8
9,139,B9
10,173,B10
11,134,B11
12,132,B12
13,140,B13
14,2030,B14
15,319,B15
16,620,B16
17,276,B17
18,345,B18
19,260,B19
20,286,B20

row,Kd [nM],Binder
1,272,B21
2,282,B22
3,258,B23
4,241,B24
5,65.9,B25
6,64.6,B26
7,61.1,B27
8,177,B28
9,154,B29
10,142,B30
11,123,B31
12,126,B32
13,127,B33
14,133,B34
15,165,B35
16,123,B36
17,131,B37
18,135,B38
19,74.4,B39
20,48.7,B40

row,Kd [nM],Binder
1,13.2,B41
2,10.3,B42
3,10.4,B43
4,10.4,B44
5,13.7,B45
6,9.55,B46
7,12.2,B47
8,51.8,B48
9,89.5,B49
10,79.4,B50
11,117,B51
12,44.8,B52
13,55.4,B53
14,129,B54
15,140,B55
16,158,B56
17,166,B57
18,126,B58
19,163,B59
20,158,B60
